Reference: patent US7422862B2, “Methods for identifying modulators of apoptosis” (The Burnham Institute, priority 2001, dated 2008)
No end group written: not given here.

Legend:
[1] = molecular target: T1, purified recombinant Bax (Homo sapiens, UniProt Q07812); test: Fluorescence polarization assay (FPA) of rhodamine-labelled peptide binding to Bax; parameters: full-length Bax protein was produced in bacteria and purified; made in house; host or cells: E. coli BL21; details: rhodamine-labelled control peptides
Protocol: (C) The affinity (Kd) of Bax/HN interaction was measured by fluorescence polarization assay, using various concentrations of purified recombinant Bax and 40 nM rhodamine-conjugated HN peptide. Control peptide from CD40 is also shown (mean +Std Dev; n=3).
In this example, the in vitro binding assay is a fluorescence polarization assay (FPA). For this experiment, full-length Bax protein was produced in bacteria and purified. Various concentrations of Bax protein were incubated with 40 nM of rhodamine-conjugated synthetic purified Humanin peptide. The extent of peptide binding was then monitored by measuring polarization of monochromatic light passed through the sample, where peptide binding to the bulkier protein slows the rate of peptide tumbling in solution, enhancing the polarization effect.
(§2) Fluorescence Polarization Assays were performed as follows. Recombinant Bax protein was isolated from E. coli BL21 harboring pTYB1-Bax essentially as described (Suzuki et al., Cell 103:645-654 (2000)). For fluorescence polarization assays (FPA), various concentrations of Bax protein were incubated with 40 nM of rhodamine-conjugated synthetic purified Humanin peptide dissolved in water for 30 minutes in dark. Fluorescence polarization was measured using an AnalystTM AD Assay Detection System (LJL Biosystem, Sunnyvale, Calif.).

[2] = molecular target: Bcl-XL (Homo sapiens, UniProt Q07817); test: Fluorescence polarization assay, Bcl-XL specificity control; format: binding
Protocol: The binding of Humanin to Bax was further investigated using an in vitro binding assay. In this example, the in vitro binding assay is a fluorescence polarization assay (FPA). For this experiment, full-length Bax protein was produced in bacteria and purified. Various concentrations of Bax protein were incubated with 40 nM of rhodamine-conjugated synthetic purified Humanin peptide. The extent of peptide binding was then monitored by measuring polarization of monochromatic light passed through the sample, where peptide binding to the bulkier protein slows the rate of peptide tumbling in solution, enhancing the polarization effect.
as §2

[3] = tested on: Bax; test: Bax-induced lethality in yeast; format: cell-based, S. cerevisiae; details: TAD-fusion polypeptide, galactose-induced Bax
[4] = molecular target: T2, GFP-Bax (Homo sapiens, UniProt Q07812); test: STS-induced GFP-Bax translocation to mitochondria in Cos7 cells (confocal microscopy); format: cell-based; details: peptide transduced with Chariot, 1 μM STS
T2 construct: expressed in transfected cells; host or cells: Cos-7
Protocol: (§1) (A-B) Humanin peptide prevents STS-induced Bax translocation in vivo. Cos-7 cells were first transfected with GFP-Bax plasmids. After 24 hrs, untagged wild-type or C8P mutant Humanin peptides were introduced into cells using ChariotTM reagent, and 2 h later cells were treated with 1 μM STS. After 4 h, the percentage of cells with translocated Bax was determined (mean±SD; n=3) by confocal microscopy (A) and representative photomicrographs (B). (C) Wild-type or C8P mutant Humanin peptides were introduced into Cos7 cells using ChariotTM reagent. Cytosolic (C) and mitochondria-containing (M) fractions were isolated by differential centrifugation 23 and analyzed by immunoblotting using anti-Bax (top), Hsp60 (middle) (mitochondrial marker), or Tubulin (bottom) (cytosol marker) antibodies. (D) HN or mutant control double-strand siRNAs were transfected into SF268 cells. After 48 h, cells were cultured without (Control) or with 0.1 uM STS. After 24 hr, cells were fractionated and analyzed by immunoblotting as above. (E) Isolated mitochondria were mixed with 400 ng Bax protein, with or without preincubating Bax with 100 uM Humanin or Humanin(C8P) peptides for 10 min. After 3 h at 30° C., mitochondria were centrifuged and the resulting pellets (P) and supernatants (S) were analyzed by immunoblotting using anti-Cytochrome c (top), Hsp60 (middle), and Bax (bottom) antibodies. […]

[5] = tested on: endogenous Bax protein; test: Subcellular fractionation and immunoblot of endogenous Bax after STS; format: cell-based; details: Cos7 cells, untagged peptides, STS
Protocol: as §1, with “(E) Isolated mitochondria were mixed with 400 ng Bax protein, with or without preincubating Bax with 100 uM Humanin or Humanin(C8P) peptides for 10 min.” left out
These findings were also confirmed by subcellular fractionation, where cytosol and mitochondria-enriched heavy membrane preparations were prepared from Cos7 cells transduced with untagged Humanin or Humanin(C8P) peptides, and the relative amounts of endogenous Bax protein in these two fractions were measured by immunoblot analysis of samples normalized for cell-equivalents. […] Differences in the relative potency of Humanin at blocking Bax translocation as measured by microscopy (FIG. 7A) versus cell fractionation methods (FIG. 7C) can be explained by differences in the sensitivity of the assays, or could possibly indicate that even in cells where some Bax translocation has occurred, less of the total Bax protein associated with mitochondria. […]

[6] = molecular target: T1, purified recombinant Bax; test: Isolated mitochondria: Bax association and cytochrome c release assay; format: biochemical; details: 100 μM peptide preincubated with Bax, HCT116 mitochondria
Protocol: (A-B) Humanin peptide prevents STS-induced Bax translocation in vivo. Cos-7 cells were first transfected with GFP-Bax plasmids. After 24 hrs, untagged wild-type or C8P mutant Humanin peptides were introduced into cells using ChariotTM reagent, and 2 h later cells were treated with 1 μM STS. After 4 h, the percentage of cells with translocated Bax was determined (mean±SD; n=3) by confocal microscopy (A) and representative photomicrographs (B). (C) Wild-type or C8P mutant Humanin peptides were introduced into Cos7 cells using ChariotTM reagent. Cytosolic (C) and mitochondria-containing (M) fractions were isolated by differential centrifugation 23 and analyzed by immunoblotting using anti-Bax (top), Hsp60 (middle) (mitochondrial marker), or Tubulin (bottom) (cytosol marker) antibodies. (D) HN or mutant control double-strand siRNAs were transfected into SF268 cells. After 48 h, cells were cultured without (Control) or with 0.1 uM STS. After 24 hr, cells were fractionated and analyzed by immunoblotting as above. (E) Isolated mitochondria were mixed with 400 ng Bax protein, with or without preincubating Bax with 100 uM Humanin or Humanin(C8P) peptides for 10 min. After 3 h at 30° C., mitochondria were centrifuged and the resulting pellets (P) and supernatants (S) were analyzed by immunoblotting using anti-Cytochrome c (top), Hsp60 (middle), and Bax (bottom) antibodies. (F) HN peptide enforces the interaction of Bax TM domain with Bax.TM. Lysates from HEK293T cells expressing Flag-Bax.TM were pretreated with or without Humanin or Humanin(C8P) peptides. Lysates were then mixed in vitro with lysates of HEK293T cells expressing GFP-TM(Bax). Immunoprecipitations were performed with anti-Flag antibody, analyzing lysates and immunoprecipitates (IP) by immunoblotting using monoclonal anti-GFP antibody.
To determine whether Humanin can act directly on Bax, the effects of Humanin on isolated mitochondria were tested. Addition of recombinant purified Bax protein to mitochondria in vitro induces cytochrome c release (Jurgensmeier et al., Proc. Natl. Acad. Sci. USA 95:4997-5002 (1998)). […] Therefore Humanin can directly suppress Bax targeting to mitochondria, without requirement for intact cells.
Cytochrome c release assays were performed as follows. Mitochondria were isolated from HCT116 cells by differential centrifugation as described above. Purified recombinant human Bax protein (400 ng for each sample) was pre-incubated with or without 100 μM synthetic Humanin peptide or mutant Humanin (C8P) peptide for 10 min at 4° C. The untreated or peptide pre-treated Baxprotein samples were then mixed with equal amount of HCT116 mitochondria (in a volume of 40 μl) at 30° C. for 3 hours. […]

[7] = molecular target: T3, BaxΔTM (Homo sapiens, UniProt Q07812); test: Co-immunoprecipitation of BaxΔTM with GFP-TM(Bax); format: binding; details: lysates pre-incubated with peptide
T3 construct: a C-terminally truncated Bax protein (residues 1-169) (BaxΔTM); expressed in transfected cells; host or cells: HEK293T (lysates mixed in vitro)
Protocol: as §1

T1 sequence (Q07812 whole entry): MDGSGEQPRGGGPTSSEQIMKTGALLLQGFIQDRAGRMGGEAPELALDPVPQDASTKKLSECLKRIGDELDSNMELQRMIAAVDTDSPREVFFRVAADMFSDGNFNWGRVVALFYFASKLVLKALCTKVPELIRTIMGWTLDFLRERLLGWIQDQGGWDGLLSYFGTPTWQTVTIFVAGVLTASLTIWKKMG
T2 sequence (Q07812 whole entry): as above
Chain of Bcl-XL (Q07817 whole entry, species assumed, the tested form may be a part): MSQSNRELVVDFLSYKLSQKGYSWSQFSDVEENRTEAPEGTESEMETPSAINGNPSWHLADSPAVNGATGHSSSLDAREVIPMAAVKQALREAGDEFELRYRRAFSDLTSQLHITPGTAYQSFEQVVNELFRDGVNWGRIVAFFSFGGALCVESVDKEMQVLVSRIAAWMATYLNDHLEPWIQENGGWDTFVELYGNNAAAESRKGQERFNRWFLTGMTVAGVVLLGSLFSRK
T3 sequence (Q07812 1-169, stated change not applied): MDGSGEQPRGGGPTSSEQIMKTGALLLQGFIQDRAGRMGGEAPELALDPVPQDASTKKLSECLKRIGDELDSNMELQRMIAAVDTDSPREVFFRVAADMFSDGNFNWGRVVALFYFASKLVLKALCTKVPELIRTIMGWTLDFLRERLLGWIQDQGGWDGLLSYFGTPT
T3 sequence (Q07812 170-192 partner limits assumed): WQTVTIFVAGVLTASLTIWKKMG

With “rhodamine-CD40: rhodamine-labelled control peptide from CD40 (residue 250P to 266G) (PVQETLHGCQPVTQEDG; also: rhodamine label; UniProt P25942 250-266, looked up, fragment)” the “interaction with Bax in fluorescence polarization assay” value [1] was “did not display interactions”.

`CC[C@H](C)[C@H](NC(=O)[C@H](CCC(=O)O)NC(=O)[C@H](CO)NC(=O)[C@@H](NC(=O)[C@H](CC(C)C)NC(=O)[C@H](CC(C)C)NC(=O)[C@H](CC(C)C)NC(=O)[C@H](CC(C)C)NC(=O)[C@H](CS)NC(=O)[C@H](CO)NC(=O)[C@H](Cc1ccccc1)NC(=O)CNC(=O)[C@H](CCCNC(=N)N)NC(=O)[C@@H]1CCCN1C(=O)[C@H](C)NC(=O)[C@H](CCSC)NC(=O)CCCCCNC(=O)c1ccccc1-c1c2ccc(=[N+](CC)CC)cc-2oc2cc(N(CC)CC)ccc12)[C@@H](C)O)C(=O)N[C@@H](CC(=O)O)C(=O)N[C@@H](CC(C)C)C(=O)N1CCC[C@H]1C(=O)N[C@H](C(=O)N[C@@H](CCCCN)C(=O)N[C@@H](CCCNC(=N)N)C(=O)N[C@@H](CCCNC(=N)N)C(=O)N[C@@H](C)C(N)=O)C(C)C` [rhodamine-HN] was tested, and the “binding to Bcl-XL in fluorescence polarization assay” value [2] was “did not bind”.

“Humanin(C8P): synthetic Humanin peptide (or TAD-fusion in yeast) with C8P mutation, non-Bax-binding (MAPRGFSPLLLLTSEIDLPVKRRA; UniProt Q8IVG9 1-24, looked up, variant C8P)” was tested, and the “rescue of yeast from Bax-induced lethality” value [3] was “did not rescue”, the “suppression of GFP-Bax translocation” value [4] was “not” and the “Bax translocation by subcellular fractionation” value [5] was “no effect”. The “Bax association with mitochondria” value [6] was “did not interfere”, the cytochrome c release [6] was “did not interfere” and the “interaction of BaxΔTM with GFP-TM” value [7] was “did not promote”.
